# In publication PMC5089960 (Angewandte Chemie (International ed. in English), 2016):
# Target: the molecule itself
# Test: crystal structure
protein,measurement,value
"PsoE (enzyme, A. fumigatus) MVFGTLYTFPGDQCRTIAIKAVAKANGLDLDIRETPRTPDHLSISKLGKVPAFQGADSFKLFECMAIALYITSQNEQTTLLGKDKKEYAEIIKWMSFFNTEIVILMTQQLLPQLGVIPYDRDQVEFFANMTQRSVDVVEEYLQDRTFLVGDQLSLADLFCAGNISLGFQFFYGKAWRQQNPNVSRWYEMVCHQPIYAAVTDKFQLLDEPKLTNNPPEKKPETVPKNGAAVAIEATQA",stoichiometry N,2
